The values below come from patent publication US20230265170A1.

A value given as a limit tells only on which side of the number the result lay.

Test in all cases: cell-based or functional assay
Assay [1] concerns the target SARS-CoV-2 spike (S) protein of the variant printed 'BA.1' in column 9 of Table 32 (SARS-CoV-2).
Assay [2] has as its target synthetic SARS-CoV-2 spike 'BA.4 + all' (SARS-CoV-2 (synthetic variant)).
Assay [3] deals with SARS-CoV-2 Omicron BA.3 spike (S) protein (SARS-CoV-2).
The target in assay [4] is SARS-CoV-2 Omicron BA.1 spike (S) protein (SARS-CoV-2).
Assay [5] concerns the target SARS-CoV-2 Omicron BA.2 spike (S) protein (SARS-CoV-2).

Omi-29 (antibody), sequence (VH): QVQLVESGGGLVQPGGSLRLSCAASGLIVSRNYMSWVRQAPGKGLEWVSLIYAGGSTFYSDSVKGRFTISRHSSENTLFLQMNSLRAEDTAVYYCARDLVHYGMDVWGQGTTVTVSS
Omi-29 (antibody), sequence (VL): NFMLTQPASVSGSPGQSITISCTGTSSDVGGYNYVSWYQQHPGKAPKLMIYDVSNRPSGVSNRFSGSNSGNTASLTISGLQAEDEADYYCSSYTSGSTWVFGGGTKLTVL
AZD8895 (antibody), sequence (VH): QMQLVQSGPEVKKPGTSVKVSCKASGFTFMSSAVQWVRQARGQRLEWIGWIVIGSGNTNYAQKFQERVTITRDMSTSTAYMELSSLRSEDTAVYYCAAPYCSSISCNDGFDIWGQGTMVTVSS
AZD8895 (antibody), sequence (VL): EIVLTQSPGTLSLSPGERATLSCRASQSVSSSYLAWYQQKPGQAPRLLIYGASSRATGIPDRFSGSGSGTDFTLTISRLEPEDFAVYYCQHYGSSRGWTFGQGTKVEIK
Omi-12 (antibody), sequence (VH): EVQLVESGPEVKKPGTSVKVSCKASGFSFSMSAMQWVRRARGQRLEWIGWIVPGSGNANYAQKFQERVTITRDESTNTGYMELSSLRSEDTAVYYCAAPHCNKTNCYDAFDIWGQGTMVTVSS
Omi-12 (antibody), sequence (VL): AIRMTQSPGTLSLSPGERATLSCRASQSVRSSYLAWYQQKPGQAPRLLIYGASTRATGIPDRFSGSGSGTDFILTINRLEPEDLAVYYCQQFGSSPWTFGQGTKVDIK
Omi-42 (antibody), sequence (VH): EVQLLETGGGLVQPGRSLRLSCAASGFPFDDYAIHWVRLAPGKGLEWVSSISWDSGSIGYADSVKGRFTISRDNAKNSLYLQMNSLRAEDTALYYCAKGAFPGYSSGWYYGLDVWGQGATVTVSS
Omi-42 (antibody), sequence (VL): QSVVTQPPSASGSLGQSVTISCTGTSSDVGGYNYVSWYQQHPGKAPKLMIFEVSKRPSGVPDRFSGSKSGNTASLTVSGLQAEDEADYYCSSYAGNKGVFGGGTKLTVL
Omi-18 (antibody), sequence (VH): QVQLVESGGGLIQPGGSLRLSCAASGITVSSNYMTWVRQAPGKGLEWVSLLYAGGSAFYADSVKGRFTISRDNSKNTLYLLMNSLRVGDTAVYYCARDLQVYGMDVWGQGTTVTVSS
Omi-18 (antibody), sequence (VL): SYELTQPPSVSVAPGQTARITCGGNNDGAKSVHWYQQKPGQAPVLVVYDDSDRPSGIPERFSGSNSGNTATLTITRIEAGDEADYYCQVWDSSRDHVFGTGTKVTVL
Omi-32 (antibody), sequence (VH): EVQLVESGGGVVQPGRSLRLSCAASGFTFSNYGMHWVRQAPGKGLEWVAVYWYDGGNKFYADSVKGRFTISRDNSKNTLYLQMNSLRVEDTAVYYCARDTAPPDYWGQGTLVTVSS
Omi-32 (antibody), sequence (VL): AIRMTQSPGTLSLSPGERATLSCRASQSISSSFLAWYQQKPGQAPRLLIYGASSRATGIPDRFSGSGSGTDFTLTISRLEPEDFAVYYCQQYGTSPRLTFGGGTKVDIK

For ADG20 (antibody), the IC50 (pseudovirus neutralization) in assay [1] and in assay [2] was more than 10 µg/mL in each case.
For AZD1061 (antibody), the IC50 (pseudovirus neutralization) in assay [1] and in assay [2] was more than 10 µg/mL throughout.
As for AZD7442, the IC50 (pseudovirus neutralization) in assay [1] is 2.73 µg/mL; in assay [2], more than 10 µg/mL. Besides, the figures for the IC50, pseudoviral neutralization in assay [3], in assay [4] and in assay [5] were 0.065 µg/mL, 0.232 µg/mL and 0.008 µg/mL, respectively.
Turning to AZD8895 (antibody), the IC50 (pseudovirus neutralization) in assay [1] is 5.11 µg/mL; in assay [2], more than 10 µg/mL.
On the same counts, the results for Ly-CoV16 (antibody) are more than 10 µg/mL and more than 10 µg/mL.
On the same counts, the results for Ly-CoV555 (antibody) are more than 10 µg/mL and more than 10 µg/mL.
As for Ly-CoV1404 (antibody), the IC50 (pseudovirus neutralization) in assay [1] and in assay [2] was more than 10 µg/mL in each case.
Omi-03 (antibody): the IC50 (pseudovirus neutralization) turned out to be 0.014 µg/mL in assay [1] and 0.432 µg/mL in assay [2].
On the same counts, the results for Omi-12 (antibody) are 0.004 µg/mL and more than 10 µg/mL.
As for Omi-18 (antibody), the IC50 (pseudovirus neutralization) was 0.005 µg/mL in assay [1] and 3.61 µg/mL in assay [2].
For the substance Omi-29 (antibody), the IC50 (pseudovirus neutralization) in assay [1] is 0.025 µg/mL; in assay [2], more than 10 µg/mL.
On the same counts, the results for Omi-32 (antibody) are more than 10 µg/mL and more than 10 µg/mL.
Turning to Omi-42 (antibody), the values for the IC50 (pseudovirus neutralization) in assay [1] and in assay [2] were 0.01 µg/mL and 0.008 µg/mL, respectively.
In the case of REGN10933 (antibody), the IC50 (pseudovirus neutralization) in assay [1] and in assay [2] was more than 10 µg/mL each time.
As for REGN10987 (antibody), the IC50 (pseudovirus neutralization) in assay [1] and in assay [2] was more than 10 µg/mL in each case.
In the case of S309 (antibody), the IC50 (pseudovirus neutralization) amounted to 0.436 µg/mL in assay [1] and 0.582 µg/mL in assay [2].
